Target: glutathione S-transferase (GST)
Assay: cross-linking; GST crosslinked in a crosslinker titration with UCCL or DSSO, two molar ratios of each reagent; crosslinked dimer seen (Figure 2c)

## glutathione S-transferase (GST) (enzyme)
  stoichiometry N: 2
